From patent publication US20100021477A1 (Janssen / Centocor, published 2010)

Assays:
[1] = target: T1, Hen-Egg White Lysozyme (HEL) (hen, UniProt P00698 19-147); assay: BIAcore
[2] = target: T2, Bovine Serum Albumin (BSA) (bovine, UniProt P02769 25-607); assay: BIAcore, BSA on the chip (40 RU), purified Fab
[3] = target: T2, Bovine Serum Albumin (BSA); assay: BIAcore, BSA on the chip (40 RU), purified Fab; apparent KD
[4] = target: T2, Bovine Serum Albumin (BSA); assay: BIAcore
[5] = target: T1, Hen-Egg White Lysozyme (HEL); assay: BIAcore, lysozyme on the chip (10 RU), purified Fab
[6] = target: T1, Hen-Egg White Lysozyme (HEL); assay: BIAcore, lysozyme on the chip (10 RU), purified Fab; apparent KD
[7] = target: T2, Bovine Serum Albumin (BSA); assay: BIAcore, BSA on the chip (40 RU)

T2 sequence (P02769 25-607 limits assumed): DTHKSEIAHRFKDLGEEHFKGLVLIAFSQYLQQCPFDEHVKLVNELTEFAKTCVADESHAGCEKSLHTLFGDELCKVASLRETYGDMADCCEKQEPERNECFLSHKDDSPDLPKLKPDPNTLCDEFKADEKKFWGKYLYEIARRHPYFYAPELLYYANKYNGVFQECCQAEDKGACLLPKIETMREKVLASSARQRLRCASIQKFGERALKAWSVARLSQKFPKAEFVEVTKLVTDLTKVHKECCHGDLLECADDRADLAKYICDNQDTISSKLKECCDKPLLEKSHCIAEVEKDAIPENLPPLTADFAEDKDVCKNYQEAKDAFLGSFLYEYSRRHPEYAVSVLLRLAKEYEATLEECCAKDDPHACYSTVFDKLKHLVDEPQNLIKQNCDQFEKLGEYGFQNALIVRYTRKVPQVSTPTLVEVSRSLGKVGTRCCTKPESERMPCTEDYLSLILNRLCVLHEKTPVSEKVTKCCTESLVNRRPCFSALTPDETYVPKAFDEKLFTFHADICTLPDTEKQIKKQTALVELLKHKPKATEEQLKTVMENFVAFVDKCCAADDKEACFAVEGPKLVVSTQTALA
T1 sequence (P00698 19-147 limits assumed): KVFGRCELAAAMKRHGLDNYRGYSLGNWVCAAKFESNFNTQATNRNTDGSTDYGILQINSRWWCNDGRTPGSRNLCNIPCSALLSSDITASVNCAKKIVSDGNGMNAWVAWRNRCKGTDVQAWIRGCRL

| Binder | binding result [1] | koff [2] | kon [2] | Kd [3] | binding result [4] | koff [5] | kon [5] | Kd [6] | binding result [7] |
| --- | --- | --- | --- | --- | --- | --- | --- | --- | --- |
| Fab F4 (Fab, V domains shown, also called F4 (Hc/Lc)) VH: QVQLVQSGAEVKKPGSSVKVSCKASGGTFSSYGISWVRQAPGQGLEWMGGIIPIFGTANYAQKFQGRVTITADESTSTAYMELSSLRSEDTAVYYCARDFGVYTWLGQTFDYWGQGTLVTVSS VL: not shown | no binding | 0.00048 s⁻¹ | 51000 M⁻¹ s⁻¹ | 9 nM | – | – | – | – | – |
| Fab D6 (Fab, V domains shown, also called D6 (Hc/Lc)) VH: QVQLVQSGAEVKKPGSSVKVSCKASGGTFSSYAISWVRQAPGQGLEWMGGIIPIFGTANYAQKFQGRVTITADESTSTAYMELSSLRSEDTAVYYCARGIIGINLVVLDYWGQGTLVTVSS VL: not shown | no binding | 0.00195 s⁻¹ | 572000 M⁻¹ s⁻¹ | 4 nM | – | – | – | – | – |
| Fab F6 (Fab, V domains shown, also called F6 (Hc/Lc)) VH: QVQLVQSGAEVKKPGSSVKVSCKASGGTFSSYAISWVRQAPGQGLEWMGGIIPIFGTANYAQKFQGRVTITADESTSTAYMELSSLRSEDTAVYYCARGIIGTITYVFDYWGQGTLVTVSS VL: not shown | no binding | 0.0113 s⁻¹ | 430000 M⁻¹ s⁻¹ | 26 nM | – | – | – | – | – |
| Fab E5 (Fab, V domains shown, also called E5 (Hc/Lc)) VH: QVQLVQSGAEVKKPGSSVKVSCKASGGTFSSYAISWVRQAPGQGLEWMGWIIPYNGNANYAQKFQGRVTITADESTSTAYMELSSLRSEDTAVYYCARHTPVRDLDYWGQGTLVTVSS VL: not shown | – | – | – | – | no binding | 0.00233 s⁻¹ | 227000 M⁻¹ s⁻¹ | 10 nM | – |
| Fab C6 (Fab, V domains shown, also called C6 (Hc/Lc)) VH: QVQLVQSGAEVKKPGSSVKVSCKASGGTFSSYGISWVRQAPGQGLEWMGGIIPIFGTANYAQKFQGRVTITADESTSTAYMELSSLRSEDTAVYYCARLCVSPAWDQCFDYWGQGTLVTVSS VL: not shown | no binding | – | – | – | – | – | – | – | no binding |
| Fab C2 (Fab, V domains shown, also called C2 (Hc/Lc)) VH: QVQLVQSGAEVKKPGSSVKVSCKASGGTFSSYAISWVRQAPGQGLEWMGGIIPINGNANYAQKFQGRVTITADESTSTAYMELSSLRSEDTAVYYCARRAGMRVQTYYFFDYWGQGTLVTVSS VL: not shown | no binding | 0.00169 s⁻¹ | 60000 M⁻¹ s⁻¹ | 28 nM | – | – | – | – | – |
| Fab E7 (Fab, V domains shown, also called E7 (Hc/Lc)) VH: QVQLVQSGAEVKKPGSSVKVSCKASGGTFSSYAISWVRQAPGQGLEWMGGIIPIFGTANYAQKFQGRVTITADESTSTAYMELSSLRSEDTAVYYCAREGGEVYDWEYYLDYWGQGTLVTVSS VL: not shown | – | – | – | – | no binding | 0.12 s⁻¹ | 460000 M⁻¹ s⁻¹ | 260 nM | – |
| Fab D11 (Fab, V domains shown, also called D11(Hc/Lc)) VH: QVQLVQSGAEVKKPGSSVKVSCKASGGTFSSYAISWVRQAPGQGLEWMGGIIPIFGTANYAQKFQGRVTITADESTSTAYMELSSLRSEDTAVYYCARIRWGGWFRGYLDYWGQGTLVTVSS VL: not shown | no binding | – | – | – | – | – | – | – | – |
